Test results from patent US20190071499A1 (published 2019).

T1: g1mIFN-α1 (mouse, UniProt P01572 24-189)
T1 construct: also called murine IFN-α1 (Gaussia luciferase fusion); not shown: Gaussia luciferase fusion partner
T1 sequence (looked up): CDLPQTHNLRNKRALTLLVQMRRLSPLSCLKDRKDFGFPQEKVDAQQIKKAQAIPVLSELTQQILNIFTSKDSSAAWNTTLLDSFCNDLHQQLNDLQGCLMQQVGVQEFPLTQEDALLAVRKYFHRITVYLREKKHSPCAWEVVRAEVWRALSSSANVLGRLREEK

T2: g1mIFN-α9 (mouse, UniProt P09235 24-190)
T2 construct: also called murine IFN-α9 (Gaussia luciferase fusion); not shown: Gaussia luciferase fusion partner
T2 sequence (looked up): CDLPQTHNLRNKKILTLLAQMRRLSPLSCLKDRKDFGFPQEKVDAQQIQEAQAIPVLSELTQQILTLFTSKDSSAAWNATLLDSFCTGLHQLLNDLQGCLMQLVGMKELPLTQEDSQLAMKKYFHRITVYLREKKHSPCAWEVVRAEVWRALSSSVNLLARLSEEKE

T3: human Fc fusion mouse IFN-α2 (mouse, UniProt P01573 24-190)
T3 construct: bought (SinoBiological); also called murine IFN-α2; murine INFA2; not shown: human Fc
T3 sequence (looked up): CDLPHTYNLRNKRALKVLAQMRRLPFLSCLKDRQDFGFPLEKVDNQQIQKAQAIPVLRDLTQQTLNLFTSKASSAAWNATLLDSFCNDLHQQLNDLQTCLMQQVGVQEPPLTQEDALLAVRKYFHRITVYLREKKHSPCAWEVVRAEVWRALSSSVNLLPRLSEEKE

T4: human Fc fusion mouse IFN-α4 (mouse, UniProt P07351 25-186)
T4 construct: bought (SinoBiological); also called murine IFN-α4; not shown: human Fc
T4 sequence (looked up): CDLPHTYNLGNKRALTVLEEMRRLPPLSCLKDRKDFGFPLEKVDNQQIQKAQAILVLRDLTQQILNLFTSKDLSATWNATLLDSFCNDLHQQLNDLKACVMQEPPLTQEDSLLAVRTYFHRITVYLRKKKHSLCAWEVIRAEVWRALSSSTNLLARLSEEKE

T5: peptide 22 of human IFN-α2 (human)
T5 construct: spotted on a microarray through a linker
T5 peptide: YTELYQQLNDLEACVIQG

T6: peptide 23 of human IFN-αW (IFN-ω) (human)
T6 construct: spotted on a microarray through a linker
T6 peptide: TGLHQQLQHLETCLLQVV


Legend:
[1] = biological target: T1, g1mIFN-α1; assay: LIPS
[2] = biological target: T2, g1mIFN-α9; assay: LIPS
[3] = biological target: T7, human IFN-α1 (human, UniProt P0DY56 24-189); assay: ELISA or LIPS (Table 7 summary)
T7 construct: commercial recombinant protein; also called IFN-alpha 1beta; IFN-α1/13

[4] = biological target: T8, human IFN-α10 (human, UniProt P01566 24-189); assay: ELISA or LIPS (Table 7 summary)
T8 construct: recombinant protein; also called rhIFN-α10

[5] = biological target: T9, human IFN-α16 (human, UniProt P05015 24-189); assay: ELISA or LIPS (Table 7 summary)
T9 construct: recombinant protein; also called rhIFN-α16

[6] = biological target: T10, human IFN-α21 (human, UniProt P01568 24-189); assay: ELISA or LIPS (Table 7 summary)
T10 construct: commercial recombinant protein; also called rhIFN-α21; IFN-α21 (PBL)

[7] = biological target: T3, human Fc fusion mouse IFN-α2; assay: ELISA, human Fc fusion mouse IFN-α
Method: (§1) 96 well microplates (Costar, USA) were coated with human IFN-α1, IFN-α2 (ImmunoTools), IFN-α4 (SinoBiological), IFN-α5, IFN-α6, IFN-α8, IFN-α21 (all form PBL) and IFN-α14 (ATGen) or IFN-α8 (Novus Biologicals). Plates were washed with PBS-T and blocked 1 h at room temperature with PBS containing 2% BSA (Sigma, Buchs, Switzerland). Patient sera, B cell conditioned medium, or recombinant antibody preparations were incubated for 2 h at room temperature. Binding of human IgG to the antigen of interest was determined using a horseradish peroxidase conjugated goat anti human Fe-gamma-specific antibody (Jackson ImmunoResearch, Europe Ltd., Cambridgeshire, UK) followed by measurement of the HRP activity using a TMB substrate solution (TMB, Sigma, Buchs, Switzerland).

[8] = biological target: T4, human Fc fusion mouse IFN-α4; assay: ELISA, human Fc fusion mouse IFN-α
Method: as §1

[9] = biological target: T11, human IFN-α14 (human, UniProt P01570 24-189); assay: ELISA or LIPS (Table 7 summary)
T11 construct: commercial recombinant protein; also called rhIFN-α14; IFN-α14 (ATGen)

[10] = biological target: T7, human IFN-α1; assay: cell-based or functional assay
[11] = biological target: T12, human IFN-α4 (human, UniProt P05014 24-189); assay: cell-based or functional assay
[12] = biological target: human IFN-α5 (human, UniProt P01569 24-189, limits assumed); assay: cell-based or functional assay
[13] = biological target: human IFN-α6 (human, UniProt P05013 24-189, limits assumed); assay: cell-based or functional assay
[14] = biological target: human IFN-α7 (human, UniProt P01567 24-189); assay: cell-based or functional assay
[15] = biological target: T8, human IFN-α10; assay: cell-based or functional assay
[16] = biological target: T11, human IFN-α14; assay: cell-based or functional assay
[17] = biological target: T9, human IFN-α16; assay: cell-based or functional assay
[18] = biological target: human IFN-α17 (human, UniProt P01571 24-189); assay: cell-based or functional assay
[19] = biological target: T10, human IFN-α21; assay: cell-based or functional assay
[20] = biological target: human IFN-ω (human, UniProt P05000 24-195, limits assumed); assay: cell-based or functional assay
[21] = biological target: T5, peptide 22 of human IFN-α2; assay: peptide microarray, 18mer peptides of human IFN-α2
[22] = biological target: T6, peptide 23 of human IFN-αW (IFN-ω); assay: peptide microarray, 18mer peptides of human IFN-αW
[23] = biological target: T12, human IFN-α4; assay: ELISA or LIPS (Table 7 summary)
[24] = biological target: T13, g1 IFN-α10 (human, UniProt P01566 24-189); assay: LIPS, IFN-Gaussia luciferase fusion proteins
T13 construct: in-house fusion; also called IFN-α10-Gaussia luciferase fusion protein; not shown: Gaussia luciferase (naturally secreted), N-terminal fusion partner
T13 sequence (P01566 24-189): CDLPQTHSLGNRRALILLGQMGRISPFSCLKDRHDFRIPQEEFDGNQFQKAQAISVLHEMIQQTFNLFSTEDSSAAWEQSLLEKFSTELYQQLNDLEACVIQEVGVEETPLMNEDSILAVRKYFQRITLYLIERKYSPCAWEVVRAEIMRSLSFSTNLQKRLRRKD

T9 sequence (P05015 24-189 limits assumed): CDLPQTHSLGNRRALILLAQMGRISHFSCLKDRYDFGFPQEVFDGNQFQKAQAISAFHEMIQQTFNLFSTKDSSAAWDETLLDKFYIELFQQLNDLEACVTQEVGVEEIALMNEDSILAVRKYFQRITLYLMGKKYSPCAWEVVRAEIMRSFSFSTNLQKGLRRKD
T8 sequence (P01566 24-189 limits assumed): as the sequence (P01566 24-189) above
T10 sequence (P01568 24-189 limits assumed): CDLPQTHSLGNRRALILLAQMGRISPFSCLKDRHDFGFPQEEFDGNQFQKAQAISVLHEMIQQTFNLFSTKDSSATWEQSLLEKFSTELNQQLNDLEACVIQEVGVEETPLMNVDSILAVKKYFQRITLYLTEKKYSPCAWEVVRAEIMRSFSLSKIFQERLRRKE
Chain of human IFN-α6 (P05013 24-189 limits assumed): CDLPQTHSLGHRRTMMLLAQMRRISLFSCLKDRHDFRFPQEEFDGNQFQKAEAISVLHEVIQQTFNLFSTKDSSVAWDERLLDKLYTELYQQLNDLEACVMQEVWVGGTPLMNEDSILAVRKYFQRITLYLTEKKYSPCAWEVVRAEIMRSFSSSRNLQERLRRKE
T11 sequence (P01570 24-189 limits assumed): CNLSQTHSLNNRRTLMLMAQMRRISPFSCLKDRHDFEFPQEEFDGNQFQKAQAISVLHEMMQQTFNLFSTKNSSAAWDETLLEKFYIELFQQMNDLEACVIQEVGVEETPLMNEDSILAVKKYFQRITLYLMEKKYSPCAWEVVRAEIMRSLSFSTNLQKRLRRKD
T12 sequence (P05014 24-189 limits assumed): as the sequence (P01566 24-189) above, with G19A, P26H, R37G, I38F, Q40E, N46H, I132T, R134K counted along it
T7 sequence (P0DY56 entry or part of it limits assumed): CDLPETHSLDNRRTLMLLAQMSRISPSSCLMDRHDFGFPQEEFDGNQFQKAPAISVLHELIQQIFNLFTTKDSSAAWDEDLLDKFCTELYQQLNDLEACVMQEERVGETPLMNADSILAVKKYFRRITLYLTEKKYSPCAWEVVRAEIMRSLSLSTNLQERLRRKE
Chain of human IFN-α17 (P01571 24-189 limits assumed): as the sequence (P01566 24-189) above, with G19A, R37G, I38L, A51T, D95N, V106M, I132T, R134K, R161I counted along it
Chain of human IFN-α5 (P01569 24-189 limits assumed): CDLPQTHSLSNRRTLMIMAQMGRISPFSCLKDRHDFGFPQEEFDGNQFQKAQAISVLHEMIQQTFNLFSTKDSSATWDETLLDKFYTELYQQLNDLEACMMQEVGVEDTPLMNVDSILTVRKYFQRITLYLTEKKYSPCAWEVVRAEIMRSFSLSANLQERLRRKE
Chain of human IFN-ω (P05000 24-195 limits assumed): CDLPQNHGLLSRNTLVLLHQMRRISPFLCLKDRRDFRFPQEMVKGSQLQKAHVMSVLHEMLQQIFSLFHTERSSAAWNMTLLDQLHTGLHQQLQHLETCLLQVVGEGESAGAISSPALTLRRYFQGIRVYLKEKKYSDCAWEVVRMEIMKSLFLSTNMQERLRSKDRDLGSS
Chain of human IFN-α7 (P01567 24-189 limits assumed): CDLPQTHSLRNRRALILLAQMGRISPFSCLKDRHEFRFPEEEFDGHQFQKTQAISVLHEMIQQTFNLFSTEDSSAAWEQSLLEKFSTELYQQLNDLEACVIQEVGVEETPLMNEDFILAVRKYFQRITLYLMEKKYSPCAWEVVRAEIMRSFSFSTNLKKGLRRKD

Binder	binding result [1]	binding result [2]	binding result [3]	binding result [5]	binding result [7]	binding result [8]	IC 50 (ng/ml), ISRE dual luciferase reporter assay [10] [ng/mL]	IC 50 (ng/ml), ISRE dual luciferase reporter assay [11] [ng/mL]	IC 50 (ng/ml), ISRE dual luciferase reporter assay [12] [ng/mL]	IC 50 (ng/ml), ISRE dual luciferase reporter assay [13] [ng/mL]	IC 50 (ng/ml), ISRE dual luciferase reporter assay [14] [ng/mL]	IC 50 (ng/ml), ISRE dual luciferase reporter assay [15] [ng/mL]	IC 50 (ng/ml), ISRE dual luciferase reporter assay [16] [ng/mL]	IC 50 (ng/ml), ISRE dual luciferase reporter assay [17] [ng/mL]	IC 50 (ng/ml), ISRE dual luciferase reporter assay [18] [ng/mL]	IC 50 (ng/ml), ISRE dual luciferase reporter assay [19] [ng/mL]	IC 50 (ng/ml), ISRE dual luciferase reporter assay [20] [ng/mL]	further results
25C3 (antibody, human IgG1, kappa, V domains shown, human-derived IgG1, kappa; also called MAB 25C3; hMAB 25C3) VH: EMQLMESGGGLVQPGGSLRLSCVASGFTFKSFAMSWVRQAPGKGLEWVASVGSQGGSKYYAPSVKGRFSISRDNSNNTLYVQMNSLGVEDTAFYYCVKETDAVATMDALDMWGQGTLVIVST VL: DIRVTQSPSSLSASVGDRVSISCQTSQSVNIYLNWYQQRPGKGPQLLISAASTLQSGVPSRFSGSGSGTDFILTIISLQPEDSASYYCQQGYITPYTFGQGTKVEIKR	no binding	no binding	binds	binds														binding result [4]: binds; binding result [6]: binds
13B11 (antibody, human IgG1, kappa, V domains shown, human-derived IgG1, kappa; also called MAB 13B11; hMAB 13B11) VH: DVQLLQSGGGLIQPGGSLRLSCAASGFTFKDYAMSWVRQAPGKGLEWVSVISRSGNIVDYVDSVKGRFTVSRDNSNNTLFLQMDGLRADDTAIYYCAKPKDMIVVVPAGFDSWGQGTLVSVSS VL: DIQMTQFPSTLSASVGDSVTITCRASQSISAWLAWYQQKPGKAPKLLIYKGSRLENGVPSRFSGSGSGTEFTLTIGSLQPDDFATYYCQQYKTWTFGQGTKVEIKR	no binding	no binding	binds	binds	no binding	no binding												binding result [9]: binds
12H5 (antibody, human IgG1, kappa, V domains shown) VH: QVQLIQSGPEVKRPGASVKVSCKASENTFDTHYINWVRQAPGQGLTWLGWLNPTTGKTGFPQKFKGRVILTSDTSLNTAYMEVSRLTSEDTAVYFCARVLKLSDEYNYGFDVWGQGTTVIVSS VL: DIQVTQSPSSLSASIGDRVTITCRASQNILTFINWYQHKPGKAPKLLIYAASVLQNEVPSRFSGSGSGTDFTLTITSLQPDDFGTYYCQQTYLTPQCSFGQGTKVEIKR							51.3	0.48	22.6	3.55	0.64	0.66	2.15	33	0.75	13		
31B4 (antibody, human IgG1, kappa, V domains shown, human-derived IgG1, kappa; clonally related to 26B9; also called MAB 31B4; hMAB 31B4) VH: QIQLQESGPGLVRPTETLSLTCSVSGDSISQSSHYWAWIRQPPGKGPEWIGSVYFSSMTHYNPSLTSRVSISIDKAMNKFSLKVTSVTVADTATYYCARQALARVGAMNWFDPWGQGSLVTVSS VL: DIIMTQSPESLPVSLGEGVTINCKSSQSVFFTSSNRSCLAWYQQKPGQSPKLLIYWASTRQSGVPDRFTGSGSGTDFSLTIAGLQVEDVAVYFCQQCHASPPTFGGGTRLELRR	no binding	no binding	binds	binds	no binding	no binding												binding result [23]: binds; binding result [4]: binds; binding result [9]: binds; binding result [6]: binds; binding result [24]: binds

The next lines start with results.

binding result [1]	binding result [2]	binding result [3]	binding result [5]	binding result [7]	binding result [8]	IC 50 (ng/ml), ISRE dual luciferase reporter assay [10] [ng/mL]	IC 50 (ng/ml), ISRE dual luciferase reporter assay [11] [ng/mL]	IC 50 (ng/ml), ISRE dual luciferase reporter assay [12] [ng/mL]	IC 50 (ng/ml), ISRE dual luciferase reporter assay [13] [ng/mL]	IC 50 (ng/ml), ISRE dual luciferase reporter assay [14] [ng/mL]	IC 50 (ng/ml), ISRE dual luciferase reporter assay [15] [ng/mL]	IC 50 (ng/ml), ISRE dual luciferase reporter assay [16] [ng/mL]	IC 50 (ng/ml), ISRE dual luciferase reporter assay [17] [ng/mL]	IC 50 (ng/ml), ISRE dual luciferase reporter assay [18] [ng/mL]	IC 50 (ng/ml), ISRE dual luciferase reporter assay [19] [ng/mL]	IC 50 (ng/ml), ISRE dual luciferase reporter assay [20] [ng/mL]	Binder	further results
no binding	no binding			no binding	no binding	8.6	2.07	3.74	3.16	1.57	1.84	2.01	4010	2.22	4.65	0.5	26B9 (antibody, human IgG1, kappa, V domains shown, human-derived IgG1, kappa; also called MAB 26B9; hMAB 26B9) VH: QILLQESGPGLVKPTETLSLTCSVSGDSISDSSHYWAWIRQPPGKGPEWIGSVYFSSMTHYNPSLKSRVSISVDKPKNQFSLKVTSVTVADTATYYCARQALARVGAMNWFDPWGQGSLVTVSS VL: DIIMTQSPDSLPVSLGEGVTINCKSSQSVFFTSSNKSCLAWYQQKPGKSPKLLIYWASTRQSGVPDRFRGSGSGTDFSLTITSLQAEDVAVYFCQQCQTSPPTFGGGTRLEIKR	binding result [21]: binds; binding result [22]: binds
						29	5.43	1.78	77.7	0.9	2.69	785	1.86	2.11	2.78	2.13	8H1 (antibody, human IgG1, kappa, V domains shown) VH: QVQLVQSGAEVKKPGASVKVSCKASGQTFTSDDINWVRQAPGQGLEWMGWRNPNTQDTGYAQKFHGRLTLTSNSSISTSYLELSGLRSEDTAVYYCARAGTSTLTGHYFALGVWGQGTTVIVSS VL: DIQLTQSPSSLSASVGDRVTITCQATQDISKYLNWYQQKPGKVPKLLIYETSNLEVGVPSRFSGSGSGTHFTLTISSLQAEDFATYYCQQYENFPFTFGGGTKVEIKR	
						97.4	20.2	0.91	39.3	1.9	3.63	9.2	2.35	2.31	3.05	113	50E11 (antibody, human IgG1, kappa, V domains shown) VH: QVQLVQSGAEMKKPGSSVKVSCKDFGGTFSVYGVNWVRQAPGQGLEWMGGLIPVIGPANYAQKFQGRITITADESTSTAYMELSSLRFDDTAIYYCVRDDNEYWGQGTLVTVSS VL: EMVLTQSPATLSLSPGERATLSCRASQTVSTFLAWYQQKPGQVPRLLVYDISSRANGTPARFSGGGSGTDFTLTISSLELEDFAVYYCQWRSNWPPSLTFGGGTRVEIKR	
